Source: US20260174875A1 (Novo Nordisk A/S, priority 2023, published 2026)
Numbered stars: 1 amine (or outer) side, 2 acyl side, 3 side chain; on linkers, the order of the positions; unused ones are H or OH. Square brackets hold non-standard residues; d marks the D form. Side chains are listed from the residue outwards. * marks the point of attachment. C20 diacid = O=C(O)CCCCCCCCCCCCCCCCCCC(=O)*; γGlu = O=C(O)[C@H](CCC(=O)[*:2])N[*:1]; Chem. 27 = not defined here; AEEA = NCCOCCOCC(=O)O; Aib = CC(C)(N)C(=O)O

T1: human GIP receptor (human, UniProt P48546 22-466)
T1 sequence (looked up): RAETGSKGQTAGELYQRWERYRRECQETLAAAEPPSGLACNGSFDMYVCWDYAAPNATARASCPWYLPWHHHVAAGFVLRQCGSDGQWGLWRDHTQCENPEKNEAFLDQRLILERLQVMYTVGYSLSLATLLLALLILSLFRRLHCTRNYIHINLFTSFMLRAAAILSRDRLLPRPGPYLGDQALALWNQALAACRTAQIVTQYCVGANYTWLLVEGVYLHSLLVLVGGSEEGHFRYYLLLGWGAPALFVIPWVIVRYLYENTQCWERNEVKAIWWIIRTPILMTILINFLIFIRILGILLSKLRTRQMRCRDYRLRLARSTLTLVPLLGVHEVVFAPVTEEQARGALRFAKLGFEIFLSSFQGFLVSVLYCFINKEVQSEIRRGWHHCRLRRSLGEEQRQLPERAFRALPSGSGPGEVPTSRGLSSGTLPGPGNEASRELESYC

T2: human amylin-3(a) receptor (human, UniProt P30988 25-474; O60896 24-148)
T2 sequence (looked up) 1: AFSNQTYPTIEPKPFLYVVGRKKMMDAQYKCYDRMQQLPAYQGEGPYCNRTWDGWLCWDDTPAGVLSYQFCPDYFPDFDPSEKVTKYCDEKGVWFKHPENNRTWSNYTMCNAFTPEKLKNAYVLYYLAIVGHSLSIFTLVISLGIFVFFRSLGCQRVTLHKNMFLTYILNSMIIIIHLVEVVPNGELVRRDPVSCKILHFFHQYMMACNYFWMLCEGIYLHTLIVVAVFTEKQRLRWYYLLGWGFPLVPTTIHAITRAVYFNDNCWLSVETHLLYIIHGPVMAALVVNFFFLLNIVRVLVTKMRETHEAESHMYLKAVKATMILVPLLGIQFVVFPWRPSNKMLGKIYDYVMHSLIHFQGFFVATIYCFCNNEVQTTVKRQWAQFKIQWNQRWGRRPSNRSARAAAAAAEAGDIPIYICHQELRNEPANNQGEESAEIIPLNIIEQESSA
T2 sequence (looked up) 2: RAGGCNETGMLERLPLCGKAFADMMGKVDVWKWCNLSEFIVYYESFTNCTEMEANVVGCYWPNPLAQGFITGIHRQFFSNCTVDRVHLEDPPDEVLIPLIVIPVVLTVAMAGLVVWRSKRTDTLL

B1: Compound 181 (peptide)
peptide: Y[Aib]EGTFTSDYSILLEEIAAREFIEWLLAGGPSSEAGASQLSTAQTQRLSAELHK(Chem. 27)LATLPRTETGSGSP-NH2
modifications: reading uncertain
B2: Compound 179 (peptide)
peptide: Y[Aib]EGTFTSDYSILLEEIAAREFIEWLLAGGPSSGAGASHLSTAQTQRLSAELHK(Chem. 27)LATEPRTETGSGSP-NH2
modifications: reading uncertain
B3: Compound 189 (peptide)
peptide: Y[Aib]EGTFTSDYSILLEEIAAREFIEWLLAGGPSSGAGEAPGEAPGASHLSTAQTQRLSAELHK(Chem. 27)LATLPRTETGSGSP-NH2
modifications: reading uncertain
B4: Compound 210 (peptide)
peptide: Y[Aib]EGTFTSDYSILLEEQAAREFIEWLLAGGPSSGAGQAPGQAPGASHLSTAQTQRLSAELHKLATLPRTETGSGSP-NH2
modifications: also: further groups not given here
B5: Compound 115 (peptide)
peptide: Y[Aib]EGTFTSDYSILLEEQAAREFIEWLLAGGPSSGAGQAPGQAPGASHLSTAQTQRLSAELHK([AEEA-AEEA-γGlu-C20 diacid])LATLPRTETGSGSP-NH2
B6: Compound 176 (peptide)
peptide: Y[Aib]EGTFTSDYSILLEEIAAREFIEWLLAGGPSSGAGASELSTAQTQRLSAELHK(Chem. 27)LATLPRTETGSGSP-NH2
modifications: reading uncertain
B7: Compound 183 (peptide)
peptide: Y[Aib]EGTFTSDYSK(Chem. 27)LLEEIAAREFIEWLLAGGPSSGAGASELSTAQLGRLSAELHQLATLPRTETGSGSP-NH2
modifications: reading uncertain

Biological target: T3, human GLP-1 receptor (human, UniProt P43220 24-463)
Assay: cell-based or functional assay
Conditions: not given

Molecule	hGLP-1R Potency, no HSA, EC50 [pM]
B1	28.8 pM
B2	23.3 pM
B3	26.9 pM
B4	16.4 pM
B5	19.4 pM
B6	29.9 pM

Biological target: T1, human GIP receptor
Assay: cell-based or functional assay
Conditions: not given

Molecule	hGIPR Potency, no HSA, EC50 [pM]
B1	3.25 pM
B2	4.36 pM
B3	3.18 pM
B4	9.57 pM
B5	10.3 pM
B6	3.66 pM
B7	2 pM

Biological target: T2, human amylin-3(a) receptor
Assay: cell-based or functional assay
Conditions: not given

Molecule	hAMYR3 Potency, no HSA, EC50 [pM]
B1	8.46 pM
B2	10 pM
B3	12.7 pM
B4	7.28 pM
B5	7.13 pM
B6	11.2 pM
B7	6.2 pM

Biological target: T3, human GLP-1 receptor
Assay: cell-based or functional assay
Conditions: not given
Remark: another data set of the same source

Molecule	hGLP-1R Potency, 1% HSA, EC50 [pM]
B1	134 pM
B2	170 pM
B3	81.9 pM
B5	92.9 pM
B6	178 pM
B7	744 pM

Biological target: T1, human GIP receptor
Assay: cell-based or functional assay
Conditions: not given
Remark: another data set of the same source

Molecule	hGIPR Potency, 1% HSA, EC50 [pM]
B1	20.1 pM
B2	25.5 pM
B3	9.18 pM
B5	38.9 pM
B6	23.8 pM
B7	71.4 pM

Biological target: T2, human amylin-3(a) receptor
Assay: cell-based or functional assay
Conditions: not given
Remark: another data set of the same source

Molecule	hAMYR3 Potency, 1% HSA, EC50 [pM]
B1	1300 pM
B2	1350 pM
B3	1210 pM
B5	551 pM
B6	798 pM
B7	108 pM

System: not given
Assay: not given
Conditions: endogenous hormone; cited from earlier work

Molecule	half-life
Amylin (KCNTATCATQRLANFLVHSSNNFGAILSSTNVGSNTY; Islet amyloid polypeptide; UniProt P10997 34-70, looked up) ["a 37-amino acid long polypeptide hormone produced in pancreatic beta (β)-cell from where it is co-secreted with insulin"]	15 to 20 min
